Values of other authors, collected in publication PMC4586518, “Melanin production through novel processing of proopiomelanocortin in the extracellular compartment of the auricular skin of C57BL/6 mice after UV-irradiation” (Scientific Reports, 2015).

How the values were obtained:
MC-1R [1] = system: MC-1R; set-up: method as in 2 sources, ref 23 = [23]; PMID 17317724; doi:10.1096/fj.06-7398com; Rousseau K. et al. Proopiomelanocortin (POMC), the ACTH/melanocortin precursor, is secreted by human epidermal keratinocytes and melanocytes and stimulates melanogenesis . FASEB J 21 , 1844 – 1856 ( 2 ||| ref 34 = [34]; PMID 1556905; doi:10.1016/0024-3205(92)90347-r; Slominski. A. et al. Melanotropic activity of gamma MSH peptides in melanoma cells . Life Sci , 50 , 1103 – 1108 ( 1992 ). 1556905 10.1016/0024-3205(92)90347-r; details: MC-1R
From the text: To clarify the mechanism of melanin production after UV-irradiation, we assessed the expression of POMC and POMC-derived peptides after UV-irradiation to the skin of the murine auricle.

MC-1R [2] = system: MC-1R
From the text: Melanin plays an important role in protecting skin after UV-irradiation. α-MSH is a major catalyst for melanogenesis in the skin following UV-irradiation. α-MSH-LI and ACTH-LI may be present in culture media of normal keratinocytes, fibroblasts, melanocytes, and their cell extracts. Although POMC and POMC-derived peptides such as ACTH and α-MSH are released from the intermedia of the pituitary, it is unlikely that pituitary secretions contribute to local pigmentation. In the present report, POMC-related peptides were detected in the UV-irradiated auricle ... || Structure-activity analyses of α-MSH have reported information on the essential sequence required for MC-1R binding and melanin production. […] However, Ac-His-Phe-Arg-Trp-NH2 had 400,000-fold less activity (EC50 20 μM) than α-MSH in a frog skin bioassay[31] and approximately 7,000-fold less activity (EC50 1 μM) in a lizard skin bioassay. Furthermore, the N-terminal region of α-MSH is ...

B1: proopiomelanocortin (protein, UniProt P01189 1-267, looked up)
chain: MPRSCCSRSGALLLALLLQASMEVRGWCLESSQCQDLTTESNLLECIRACKPDLSAETPMFPGNGDEQPLTENPRKYVMGHFRWDRFGRRNSSSSGSSGAGQKREDVSAGEDCGPLPEGGPEPRSDGAKPGPREGKRSYSMEHFRWGKPVGKKRRPVKVYPNGAEDESAEAFPLEFKRELTGQRLREGDGPDGPADDGAGAQADLEHSLLVAAEKKDEGPYRMEHFRWGSPPKDKRYGGFMTSEKSQTPLVTLFKNAIIKNAYKKGE
modifications: full-length
notes: precursor of α-MSH and ACTH; 32 kDa
Q: Which results are given for B1?
A: affinity for MC-1R (MC-1R [1]): markedly low; influence on melanogenesis via MC-1R (MC-1R [2]): only slightly influenced melanogenesis via MC-1R
